Assay results taken from patent US20090258001A1.

Assays:
[1] = target: CD3 (CD3/TCR complex) on CD4+ and CD8+ T cells of patients (human) (UniProt P07766); assay: flow cytometry of CD4+ T cells, free CD3 sites by biotinylated TRX4; Example 4 Cohort C, 1.0 mg
[2] = target: CD3 (CD3/TCR complex) on CD4+ and CD8+ T cells of patients (human) (UniProt P07766); assay: flow cytometry of CD4+ T cells, free CD3 sites by biotinylated TRX4; Example 4 Cohort C, 2 hours after last infusion
[3] = target: CD3 (CD3/TCR complex) on CD4+ and CD8+ T cells of patients (human) (UniProt P07766); assay: flow cytometry of CD4+ T cells, free CD3 sites by biotinylated TRX4; Example 3 Cohort 3, 0.3 mg
[4] = target: CD3 (CD3/TCR complex) on CD4+ and CD8+ T cells of patients (human) (UniProt P07766); assay: flow cytometry of CD4+ T cells, free CD3 sites by biotinylated TRX4; Example 4 Cohort A, 0.3 mg
[5] = target: CD3 (CD3/TCR complex) on CD4+ and CD8+ T cells of patients (human) (UniProt P07766); assay: flow cytometry of CD4+ T cells, free CD3 sites by biotinylated TRX4; Example 4 Cohort B, 0.2 mg
[6] = target: CD3 (CD3/TCR complex) on CD4+ and CD8+ T cells of patients (human) (UniProt P07766); assay: flow cytometry of CD4+ T cells, free CD3 sites by biotinylated TRX4; Example 4 Cohort C, 0.3 mg
[7] = target: CD3 (CD3/TCR complex) on CD4+ and CD8+ T cells of patients (human) (UniProt P07766); assay: flow cytometry of CD4+ T cells, free CD3 sites by biotinylated TRX4; Example 4 Cohort B, Day 5
[8] = target: CD3 (CD3/TCR complex) on CD4+ and CD8+ T cells of patients (human) (UniProt P07766); assay: flow cytometry of CD4+ T cells, free CD3 sites by biotinylated TRX4; Example 4 Cohort A*, 0.25 mg
[9] = target: CD3 (CD3/TCR complex) on CD4+ and CD8+ T cells of patients (human) (UniProt P07766); assay: flow cytometry of CD4+ T cells, anti-human IgG; Example 3 Cohort 3, end of 0.3 mg infusion
[10] = target: CD3 (CD3/TCR complex) on CD4+ and CD8+ T cells of patients (human) (UniProt P07766); assay: flow cytometry of CD4+ T cells, free CD3 sites by biotinylated TRX4; Example 4 Cohort A, 2 hours after last infusion
[11] = target: CD3 (CD3/TCR complex) on CD4+ and CD8+ T cells of patients (human) (UniProt P07766); assay: flow cytometry of CD4+ T cells, anti-human IgG; Example 4 Cohort C, end of 0.2 mg infusion
[12] = target: CD3 (CD3/TCR complex) on CD4+ and CD8+ T cells of patients (human) (UniProt P07766); assay: flow cytometry of CD4+ T cells, free CD3 sites by biotinylated TRX4; Example 3 Cohort 2, second 0.5 mg dose
[13] = target: CD3 (CD3/TCR complex) on CD4+ and CD8+ T cells of patients (human) (UniProt P07766); assay: flow cytometry of CD4+ T cells, anti-human IgG; Example 4 Cohort B, end of 0.2 mg infusion
[14] = target: CD3 (CD3/TCR complex) on CD4+ and CD8+ T cells of patients (human) (UniProt P07766); assay: flow cytometry of CD4+ T cells, free CD3 sites by biotinylated TRX4; Example 4 Cohort A, 0.5 mg
[15] = target: CD3 (CD3/TCR complex) on CD4+ and CD8+ T cells of patients (human) (UniProt P07766); assay: flow cytometry of CD4+ T cells, anti-human IgG; Example 4 Cohort A*, end of 0.25 mg infusion
[16] = target: CD3 (CD3/TCR complex) on CD4+ and CD8+ T cells of patients (human) (UniProt P07766); assay: flow cytometry of CD4+ T cells, free CD3 sites by biotinylated TRX4; Example 4 Cohort C, 0.2 mg
[17] = target: CD3 (CD3/TCR complex) on CD4+ and CD8+ T cells of patients (human) (UniProt P07766); assay: flow cytometry of CD4+ T cells, free CD3 sites by biotinylated TRX4; Example 4 Cohort A, 0.2 mg
[18] = target: CD3 (CD3/TCR complex) on CD4+ and CD8+ T cells of patients (human) (UniProt P07766); assay: flow cytometry of CD4+ T cells, anti-human IgG; Example 4 Cohort C, end of 1.0 mg infusion
[19] = target: CD3 (CD3/TCR complex) on CD4+ and CD8+ T cells of patients (human) (UniProt P07766); assay: flow cytometry of CD4+ T cells, anti-human IgG; Example 4 Cohort A*, end of 0.1 mg infusion
[20] = target: CD3 (CD3/TCR complex) on CD4+ and CD8+ T cells of patients (human) (UniProt P07766); assay: flow cytometry, free sites by biotinylated TRX4; Example 4, 4-dose cohorts, after doses of 0.5 mg and higher
[21] = target: CD3 (CD3/TCR complex) on CD4+ and CD8+ T cells of patients (human) (UniProt P07766); assay: flow cytometry of CD4+ T cells, anti-human IgG; Example 4 Cohort C, 2 hours after 1.0 mg infusion
[22] = target: CD3 (CD3/TCR complex) on CD4+ and CD8+ T cells of patients (human) (UniProt P07766); assay: flow cytometry of CD4+ T cells, free CD3 sites by biotinylated TRX4; Example 3 Cohort 3, 0.5 mg, end of infusion
[23] = target: CD3 (CD3/TCR complex) on CD4+ and CD8+ T cells of patients (human) (UniProt P07766); assay: flow cytometry of CD4+ T cells, anti-human IgG; Example 4 Cohort C, end of 0.1 mg infusion
[24] = target: CD3 (CD3/TCR complex) on CD4+ and CD8+ T cells of patients (human) (UniProt P07766); assay: flow cytometry of CD4+ T cells, anti-human IgG; Example 3 Cohort 2 (0.5 mg x3), end of infusion
[25] = target: CD3 (CD3/TCR complex) on CD4+ and CD8+ T cells of patients (human) (UniProt P07766); assay: flow cytometry of CD4+ T cells, anti-human IgG; Example 4 Cohort A, 2 hours after 0.5 mg infusion

Chain of UniProt P07766 (P07766 23-207, chain 1 of 3): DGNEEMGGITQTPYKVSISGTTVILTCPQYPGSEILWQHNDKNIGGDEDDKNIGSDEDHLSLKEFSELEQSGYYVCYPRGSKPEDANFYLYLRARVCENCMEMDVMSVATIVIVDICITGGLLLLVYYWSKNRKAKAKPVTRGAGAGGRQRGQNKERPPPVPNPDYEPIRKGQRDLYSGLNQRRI
Chain of UniProt P07766 (chain, as listed by the source, chain 2 of 3): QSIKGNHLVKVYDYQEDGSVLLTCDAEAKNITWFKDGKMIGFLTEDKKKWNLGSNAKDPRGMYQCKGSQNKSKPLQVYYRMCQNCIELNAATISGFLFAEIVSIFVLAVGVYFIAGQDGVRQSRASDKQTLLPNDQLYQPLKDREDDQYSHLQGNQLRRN
Chain of UniProt P07766 (chain, as listed by the source, chain 3 of 3): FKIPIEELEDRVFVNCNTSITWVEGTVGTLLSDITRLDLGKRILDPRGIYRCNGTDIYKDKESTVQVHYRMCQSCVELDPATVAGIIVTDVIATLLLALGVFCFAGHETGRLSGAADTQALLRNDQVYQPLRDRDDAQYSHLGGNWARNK

TRX4 antibody
percent saturation of CD3 [1]: 97% | percent saturation of CD3 [2]: 50% | percent saturation of CD3 [3]: 70% | percent saturation of CD3 [4]: 85% | percent saturation of CD3 [5]: 60% | percent saturation of CD3 [6]: 99% | percent saturation of CD3 [7]: 40% | percent saturation of CD3 [8]: 95% | cell-bound TRX4 (MESF of anti-human IgG) [9]: 300000 MESF units | percent saturation of CD3 [10]: 60% | cell-bound TRX4 (MESF of anti-human IgG) [11]: 1.2e+06 MESF units | percent saturation of CD3 [12]: 80% | cell-bound TRX4 (MESF of anti-human IgG) [13]: 400000 MESF | percent saturation of CD3 [14]: 95% | cell-bound TRX4 (MESF of anti-human IgG) [15]: 80000 MESF units | percent saturation of CD3 [16]: 95% | percent saturation of CD3 [17]: 70% | cell-bound TRX4 (MESF of anti-human IgG) [18]: 750000 MESF units | cell-bound TRX4 (MESF of anti-human IgG) [19]: 700000 MESF units | percent saturation of CD3 [20]: > 90% | cell-bound TRX4 (MESF of anti-human IgG) [21]: 600000 MESF units | percent saturation of CD3 [22]: 90% | cell-bound TRX4 (MESF of anti-human IgG) [23]: 800000 MESF units | cell-bound TRX4 (MESF of anti-human IgG) [24]: 600000 MESF units | cell-bound TRX4 (MESF of anti-human IgG) [25]: 400000 MESF units
